This note sets out measurements from paper doi:10.1101/2022.04.02.486822v1.

Assay in all cases: purified protein
What all share (conditions): 200 µM NADPH, 50 mM HEPES, pH 7.5, 22 °C

Substrate in series [1]: O=C(O)CCC(=O)C(=O)O
Substrate in series [2]: O=C(O)CC(=O)C(=O)O
Substrate in series [3]: N=C(N)NCCCC(=O)C(=O)O
Substrate in series [4]: O=CC(=O)O
In kind it is biochemical, Escherichia coli.

Substrate in series [5]: O=CC(=O)O

B1: EcGhrA (Escherichia coli K-12; W45F) (protein)
chain: MDIIFYHPTFDTQWWIEALRKAIPQARVRAWKSGDNDSADYALVFHPPVEMLAGRDLKAVFALGAGVDSILSKLQAHPEMLNPSVPLFRLEDTGMGEQMQEYAVSQVLHWFRRFDDYRIQQNSSHWQPLPEYHREDFTIGILGAGVLGSKVAQSLQTWRFPLRCWSRTRKSWPGVQSFAGREELSAFLSQCRVLINLLPNTPETVGIINQQLLEKLPDGAYLLNLARGVHVVEDDLLAALDSGKVKGAMLDVFNREPLPPESPLWQHPRVTITPHVAAITRPAEAVEYISRTIAQLEKGERVCGQVDRARGY
The term Km denotes the concentration of substrate that gives half-maximal velocity. The term kcat denotes the maximal rate divided by the concentration of active sites. B1: the Michaelis constant (Km) in the series “purified protein [1]” is 11.5 ± 0.8 mM; in the series “purified protein [2]”, 6.3 ± 0.2 mM; in the series “purified protein [3]”, 43.2 ± 8.4 mM; in “purified protein [4]”, 10.8 ± 6.1 mM. In addition, the turnover number (kcat) in the series “purified protein [1]” turned out to be 0.26 ± 0.01 s⁻¹; in the series “purified protein [2]” it was 1.8 ± 0.04 s⁻¹; in “purified protein [3]” it was 4.0 ± 0.7 s⁻¹; in “purified protein [4]” it was 120.0 ± 63.0 s⁻¹.

B2: EcGhrA (Escherichia coli K-12) (protein)
chain: MDIIFYHPTFDTQWWIEALRKAIPQARVRAWKSGDNDSADYALVWHPPVEMLAGRDLKAVFALGAGVDSILSKLQAHPEMLNPSVPLFRLEDTGMGEQMQEYAVSQVLHWFRRFDDYRIQQNSSHWQPLPEYHREDFTIGILGAGVLGSKVAQSLQTWRFPLRCWSRTRKSWPGVQSFAGREELSAFLSQCRVLINLLPNTPETVGIINQQLLEKLPDGAYLLNLARGVHVVEDDLLAALDSGKVKGAMLDVFNREPLPPESPLWQHPRVTITPHVAAITRPAEAVEYISRTIAQLEKGERVCGQVDRARGY
As for B2, the Km in “purified protein [1]” was 4.0 ± 0.4 mM; in “purified protein [2]”, 1.3 ± 0.2 mM; in the series “purified protein [5]”, 2.2 ± 1.7 mM; in the series “purified protein [3]”, 8.8 ± 0.8 mM. For the same protein, the kcat turned out to be 0.30 ± 0.02 s⁻¹ in “purified protein [1]”, 1.9 ± 0.1 s⁻¹ in the series “purified protein [2]”, 40.0 ± 23.0 s⁻¹ in “purified protein [5]” and 6.6 ± 0.4 s⁻¹ in “purified protein [3]”.
